# In a protein production outcome set (Wang et al. 2014):
# Assay: label from the status in PepcDB records
row,Sequence,protein production
1,MMDVNSSGRPDLYGHLRSFLLPEVGRGLPDLSPDGGADPVAGSWAPHLLSEVTASPAPTWDAPPDNASGCGEQINYGRVEKVVIGSILTLITLLTIAGNCLVVISVCFVKKLRQPSNYLIVSLALADLSVAVAVMPFVSVTDLIGGKWIFGHFFCNVFIAMDVMCCTASIMTLCVISIDRYLGITRPLTYPVRQNGKCMAKMILSVWLLSASITLPPLFGWAQNVNDDKVCLISQDFGYTIYSTAVAFYIPMSVMLFMYYQIYKAARKSAAKHKFPGFPRVEPDSVIALNGIVKLQKEVEECANLSRLLKHERKNISIFKREQKAATTLGIIVGAFTVCWLPFFLLSTARPFICGTSCSCIPLWVERTFLWLGYANSLINPFIYAFFNRDLRTTYRSLLQCQYRNINRKLSAAGMHEALKLAERPERPEFVLITRTSGVHQALENFPWGNEVNRWRKSCEYFCTDKMLTTVEKKVMIHD,failed
2,MMEEVARVVACDNQGWLTVEVELKSTCKSCNSSESCGTSAVAQAFSSKTQQFSIQSERTCEVGELLKLGLPESVILKAAALVYLMPLLGLFLGALSGQFFAGLFQINADLSAIGFAALGAITAWLIGKRKAKQLEVDSQPVILAYLGAGISLEKLPV,failed
3,MMEHHKVHTTIQALQAKRKKLLTELAELEAEIKVSSERKSSFNISLSPSLLAEIEEIEYEEKTSKERRINHSVLLSPSFMAKVDEYMKEKGFSNRSLLFEKALEFYMLKHP,failed
4,MMEQALQTITLSCEWSEERQCFWLSSSSPATSWAPLVFAWHEETFYGTLIDSVIVNGREVVQLSPWQALTFFASRPSISFVAIEWKDEFTAQLETWARQIWDDLRERRFRPDFAAWKERRSTLWSEAQHTRWLGLDADPHPFITTWRSLAIADWLSRDPELRDIWQEIIKDYPAILARNDQWISGEDDWLEQIGWLGERPLFTVGLRLVEPPEDGDSWTLETVLIALDDSVVVPVDEIPRAWRPYEQSIARAIRRIETIIPWLGGNGELRNELSDDEAWLFLSEESLKLTEAGVRLLLPDWWHNIRQAQLSIKAKLSPSVHAESLFGLERLSDFDWRVATNGIELTEEEFAAIAEQKRRLIRLRGQWIALDPALVRRAQTLMEKAKQEGVPIHEIVAQTLLAEANARDEATDEHIPIHIDVQNQFRAFIRQLHNIDELPTAVVPPSFHGTLRPYQQRGVDWLAFLRRFGFGACLADDMGLGKTVQLLAYLAYVKETEHPDTPALLICPTSVIGNWQKECARFTPELRVYTHHGPNRAKHEAFLQTAGRADLVITSYSLAHLDGDDLKQLHWHTVCLDEAQNIKNAQTKQARAIRRLRAKHKIALSGTPVENRLNELWSIFHFLNPGYLGSATEFERRFAGPIEKEGDAHKKAALQALIRPFLLRRTKTDEAVALNLPDKLEQKEYCPLTAEQAALYEQLVNDTLERAKAASPFARRGLILQMLNGIKQICNHPALYLKERSPRQLVERSHKLEKLVELVEQIRANDESCLIFTQYVRMGEMIQELLSDLFDEPVLFLNGSVPKPTRDRMVDEFQARKAPIFLLSLKAGGTGLNLTAANHVIHFDRWWNPAVENQATDRAYRIGQTKFVHVHKLITTGTIEEKIDEMLEQKQALADVITEGETWITELSDDELRDLLTLSAAAKGGA,failed
5,MMGNDSYSSNRGSSRDVLSFLQNFLGGFYAKYGIEVKLVGGLSLSKFYYAFDAERNQFLARHFLPVLSYIKKDFNARAALGIVNVDIYEPGFNFIFGLAHPGLKVAVVSLYRLYPEFYGNPPDRKLLKERALKEVMHELGHVFGLGHCPNPKCVMHFSNSIIDTDIKSWMYCESCLRKLEKNLARSHVLEHHHHHH,failed
6,MMIMERHYTLKEASKILGVSIKTLQRWDKAGKIKCIRTLGGKRRVPESEIKRILGIKDKEQRKIIGYARVSFNAQKDDLERQIQLIKSYAEENGWDIQILKDIGSGLNEKRKNYKKLLKMVMNRKVEKVIIAYPDRLTRFGFETLKEFFKSYGTEIVIINKKHKTPQEELVEDLITIVSHFAGKLYGMHSHKYKKLTKTVKEIVREEDAKEKE,failed
7,MMIMKRLLFLVSVCSLCMVGNSQNYQPEKHAVVKSDRGDGRLLSTYAIVHEMLKDTHPQYAYRSGMSAQEFTQWQDGVRAAMVEIMKFPEIKRQPSPVCVKTEKKEGYILEKWEFYPFPKSVSTFLVLKPEHLKGAVPGVLCIPGSGRTKEGLVGEPGICDKLTEDYNNPKVSMALNMVKEGYVAVAVDNAAAGEASDLECYDKGWNYDYDVVSRFLLELGWSWLGYTSYLDMQVLNWMKAQSYIRKDRIVISGFSLGTEPMMVLGVLDKDIYAFVYNDFLCQTQERAVVMTKPDKENRRPFPNSIRHLIPGYWRYFNFPDVVASLAPRPIIFTEGGLDRDFRLVQSAYAASGKPENAEFHHYPKFADKAVRKDVEHLDEGLDSKTYFEAVNVDPPSHYFKNELVIPWLRKVLK,failed
8,MMIQGHLFHQDRKRTFRIVEPFGSTTDALIYFHGSQQSGSVGRSFTNRTFDPLPFMVVYPDGVDQHWNDARLGLDENTRHLGIDDVGFFVKLATHLGNTYGIKRIFIVGYSNGGQMVLRLMHEVPKMLSGAATIASNMPVAENTLPQVKTFKTHPVPYLAMAGTADTFSPYEGGDAGIGREHRRGVGMSAFDSAAYIAARNGLTEHRHDVIDDVVSIDTWDGENPVEFWTLNGIGHLVPSGKTYPEFLGPSTTSVIAAEEIGKFFDGVRRR,failed
9,MMKAEELNKGFVNEIIEAGTPVPGEKEVASLKSCYQCGTCTGSCPSGRRTAYRTRKVIRQALLGIDSVLDSDDIWKCTTCYTCYERCPRDVKVTEIIKTIRNLAAKKGNMATPHKMTAVYVLKAGHAVPANDDTAKLRKSIGLAEKAPIAQFSQKDMDEIRTIAKNLKFDELIGFDWKTMGLKQ,failed
10,MMKCTALIVTFNRLEKLKKSVRETVKAGFSSIVIVNNGSSDGTREWLSSLSEPGITILNLKDNLGGAGGFKVGSQYICSYSNADWVFFYDDDAYPEINILKHFSLLDTSRYRIFASRVQDTYGRSCRMNLPFIRVPSTVFETIYYAMRPERFSPVRTQVTDVQTVSFVGMIIDRKVLNNHLNDIHDELFLYYDDFFFGYKLVLSGQKIRYSPEIKFIHDISIHGKCICPEWKVYYLCRNLLLLRKLLPVPRIFSVLSIVLRLSKYLAILPWQRKKFRYLYFIWQGILHGLKGISGKYH,failed
11,MMKDMTTGNPTKLIFLFAMPMLIGNLFQQFYTMIDAVIVGKFVSVDALAAVGATNSVNFFMISLIIGLMSGISVVVAQYFGFKDYDRLKDVIATATYAVVFSAIILTVAGVLLAKPLLILLRTPANILDDSTIFLTTLFIGILPMSLYNGMAAILRALGNSITPLIFLILSSLMNIALDFLFVVYMDMGVRGAAIATVLSQTAAAIAVIYYAYRHVPFMRIERAKFKLSTPLLKEMVRIGLPSGLQGSFISIGNMALQSLINGFGSSVVAAYTAASRIDSLTYQPGIAFGAASSMFAGQNIGAGKIDRVREGFWSGIKVVTAISIGITILVQLFARQFLLLFVDSSETEVINIGVSYLLIVSLFYVVVGILFVVRETLRGTGDAMVPLAMGIFELVSRLVIGFVLSLYIGYVGLWWATPVAWITATILGVWRYKSGAWQKKAVIRRK,not failed
12,MMKKLTALFVASTLALGAANLAHAAETTTAPSDSKPMMMHHKGGPGQHDMMFKGLNLTDAQKQQIRDIMKSQRENMKRPSLEERRAMHDLIASDTFDKAKAEAQIDKMEAQHKAMALSRLETQNKIYNILTPEQKKQFNANFEKHLTERNAPAGKMPAPAE,failed
13,MMKKMMVLYNETSGSSESKEIAERFKKAAEARGEAVILQPSNPDIDPEEMRKNAKENQVGVLVVIGGDGTIHHAVQNFKDTIRDYQIGIIPGGTVNNFARVLSIPLKEEDAFETILAGQTTPVDFGMVNQD,failed
14,MMKLVCPSYIAKRKDSLAFKLFSYMTAIVISILLVQALAEQALVKAMLKVPNSVKMEMLDLAHQANVLIEHGDMDELADWANAQQFYLFVLNEQLQPVTHRLMHPHFEFKLQFKRSIDDQLEDKVNRPIISIPLVQQHNLVIQLPHRLHPANDFILYFSIIKVVIAAVILALFSLLMARNLQQPLDRLREASKKLSNGDFNVSVVQELKSNTREFNELAQDFDHMTKEIHSLAEKQRLLIRDVSHELRTPLARQNLVLHLLRKRVGESEQELVTRLEDEAKELNHLISDILEFSRLENARYDKETKRSDLEVLLAPQVERCKIDLRESQSIVFISRVTEPRAYCEDTLVVRCLNNLVGNAIKYAGEDARIEVTLTNQEINGQAYLVMSVSDDGPGIPENKLSDIFNPFTRLDASRDKKLGGYGLGLAIVKESMRMMGGSVNAENRSQGGLTVSLVFRQ,failed
